Laboratory results reported in the supplement of paper PMC11316812.
± gives the standard deviation of the averaged measurements.

How the values were obtained:
MCF7 = assay: percentage of EdU-negative (G0-arrested) nuclei per well, 72 h; higher = more G0 arrest; details: reference: sequence is the full UniProt precursor, the tested protein was the secreted form or ectodomain
hTERT-HMEC = assay: as above; details: reference: sequence is the full UniProt precursor, the tested protein was the secreted form or ectodomain
[1] = protein concentration 0.0255 µM
[2] = protein concentration 0.03125 µM
[3] = protein concentration 0.3125 µM
[4] = protein concentration 0.0257143 µM
[5] = protein concentration 0.257143 µM
[6] = protein concentration 0.0225 µM
[7] = protein concentration 0.0357143 µM
[8] = protein concentration 0.357143 µM
[9] = protein concentration 0.0308875 µM
[10] = protein concentration 0.308875 µM
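Note: secreted proteins added to cultured cells, EdU pulse at the end, nuclei found by Hoechst imaging, EdU status from nuclear versus surrounding ring intensity ratio, PBS as neutral control.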

With “MALPFALLMALVVLSCKSSCSLDCDLPQTHSLGHRRTMMLLAQMRRISLFSCLKDRHDFRFPQEEFDGNQFQKAEAISVLHEVIQQTFNLFSTKDSSVAWDERLLDKLYTELYQQLNDLEACVMQEVWVGGTPLMNEDSILAVRKYFQRITLYLTEKKYSPCAWEVVRAEIMRSFSSSRNLQERLRRKE” the “percentage of EdU-negative” value (MCF7; [1]) was 48.4 ± 2.7%, the “percentage of EdU-negative” value (MCF7; protein concentration 0.255 µM) was 49.64 ± 0.2% and the “percentage of EdU-negative” value (hTERT-HMEC; [1]) was 15.8 ± 6.2%. For the same sequence, the “percentage of EdU-negative” value (hTERT-HMEC; protein concentration 0.255 µM) was 27.4 ± 0.99%.
With “MALPFALMMALVVLSCKSSCSLGCNLSQTHSLNNRRTLMLMAQMRRISPFSCLKDRHDFEFPQEEFDGNQFQKAQAISVLHEMMQQTFNLFSTKNSSAAWDETLLEKFYIELFQQMNDLEACVIQEVGVEETPLMNEDSILAVKKYFQRITLYLMEKKYSPCAWEVVRAEIMRSLSFSTNLQKRLRRKD” the “percentage of EdU-negative” value (MCF7; protein concentration 0.03 µM) was 49.17 ± 0.42%, the “percentage of EdU-negative” value (MCF7; protein concentration 0.3 µM) was 48.8 ± 4.3% and the “percentage of EdU-negative” value (hTERT-HMEC; protein concentration 0.03 µM) was 21.5 ± 5.7%. For the same sequence, the “percentage of EdU-negative” value (hTERT-HMEC; protein concentration 0.3 µM) was 34.2 ± 2.4%.
“MALPFVLLMALVVLNCKSICSLGCDLPQTHSLSNRRTLMIMAQMGRISPFSCLKDRHDFGFPQEEFDGNQFQKAQAISVLHEMIQQTFNLFSTKDSSATWDETLLDKFYTELYQQLNDLEACMMQEVGVEDTPLMNVDSILTVRKYFQRITLYLTEKKYSPCAWEVVRAEIMRSFSLSANLQERLRRKE” was tested, and the “percentage of EdU-negative” value (MCF7; [2]) was 45.45 ± 0.21%, the “percentage of EdU-negative” value (MCF7; [3]) was 48.29 ± 0.24% and the “percentage of EdU-negative” value (hTERT-HMEC; [2]) was 22.9 ± 1.4%. The “percentage of EdU-negative” value (hTERT-HMEC; [3]) was 28.6 ± 0.61%.
For “MALPRCTWPNYVWRAVMACLVHRGLGAPLTLCMLGCLLQAGHVLSQKLDDVDPLVATNFGKIRGIKKELNNEILGPVIQFLGVPYAAPPTGERRFQPPEPPSPWSDIRNATQFAPVCPQNIIDGRLPEVMLPVWFTNNLDVVSSYVQDQSEDCLYLNIYVPTEDVKRISKECARKPGKKICRKGGPLTKKQTDDLGDNDGAEDEDIRDSGGPKPVMVYIHGGSYMEGTGNLYDGSVLASYGNVIVITVNYRLGVLGFLSTGDQAAKGNYGLLDLIQALRWTSENIGFFGGDPLRITVFGSGAGGSCVNLLTLSHYSEGNRWSNSTKGLFQRAIAQSGTALSSWAVSFQPAKYARMLATKVGCNVSDTVELVECLQKKPYKELVDQDIQPARYHIAFGPVIDGDVIPDDPQILMEQGEFLNYDIMLGVNQGEGLKFVENIVDSDDGISASDFDFAVSNFVDNLYGYPEGKDVLRETIKFMYTDWADRHNPETRRKTLLALFTDHQWVAPAVATADLHSNFGSPTYFYAFYHHCQTDQVPAWADAAHGDEVPYVLGIPMIGPTELFPCNFSKNDVMLSAVVMTYWTNFAKTGDPNQPVPQDTKFIHTKPNRFEEVAWTRYSQKDQLYLHIGLKPRVKEHYRANKVNLWLELVPHLHNLNDISQYTSTTTKVPSTDITFRPTRKNSVPVTSAFPTAKQDDPKQQPSPFSVDQRDYSTELSVTIAVGASLLFLNILAFAALYYKKDKRRHDVHRRCSPQRTTTNDLTHAQEEEIMSLQMKHTDLDHECESIHPHEVVLRTACPPDYTLAMRRSPDDVPLMTPNTITMIPNTIPGIQPLHTFNTFTGGQNNTLPHPHPHPHSHSTTRV [Q8N2Q7]”, the “percentage of EdU-negative” value (MCF7; [4]) was 23.1 ± 1.3%, the “percentage of EdU-negative” value (MCF7; [5]) was 22.8 ± 3.5% and the “percentage of EdU-negative” value (hTERT-HMEC; [4]) was 4.75 ± 0.6%. The “percentage of EdU-negative” value (hTERT-HMEC; [5]) was 5.43 ± 0.056%.
For “MALPSLLLLVAALAGGVRPPGARNLTLAVVLPEHNLSYAWAWPRVGPAVALAVEALGRALPVDLRFVSSELEGACSEYLAPLSAVDLKLYHDPDLLLGPGCVYPAASVARFASHWRLPLLTAGAVASGFSAKNDHYRTLVRTGPSAPKLGEFVVTLHGHFNWTARAALLYLDARTDDRPHYFTIEGVFEALQGSNLSVQHQVYAREPGGPEQATHFIRANGRIVYICGPLEMLHEILLQAQRENLTNGDYVFFYLDVFGESLRAGPTRATGRPWQDNRTREQAQALREAFQTVLVITYREPPNPEYQEFQNRLLIRAREDFGVELGPSLMNLIAGCFYDGILLYAEVLNETIQEGGTREDGLRIVEKMQGRRYHGVTGLVVMDKNNDRETDFVLWAMGDLDSGDFQPAAHYSGAEKQIWWTGRPIPWVKGAPPSDNPPCAFDLDDPSCDKTPLSTLAIVALGTGITFIMFGVSSFLIFRKLMLEKELASMLWRIRWEELQFGNSERYHKGAGSRLTLSLRGSSYGSLMTAHGKYQIFANTGHFKGNVVAIKHVNKKRIELTRQVLFELKHMRDVQFNHLTRFIGACIDPPNICIVTEYCPRGSLQDILENDSINLDWMFRYSLINDLVKGMAFLHNSIISSHGSLKSSNCVVDSRFVLKITDYGLASFRSTAEPDDSHALYAKKLWTAPELLSGNPLPTTGMQKADVYSFGIILQEIALRSGPFYLEGLDLSPKEIVQKVRNGQRPYFRPSIDRTQLNEELVLLMERCWAQDPAERPDFGQIKGFIRRFNKEGGTSILDNLLLRMEQYANNLEKLVEERTQAYLEEKRKAEALLYQILPHSVAEQLKRGETVQAEAFDSVTIYFSDIVGFTALSAESTPMQVVTLLNDLYTCFDAIIDNFDVYKVETIGDAYMVVSGLPGRNGQRHAPEIARMALALLDAVSSFRIRHRPHDQLRLRIGVHTGPVCAGVVGLKMPRYCLFGDTVNTASRMESNGQALKIHVSSTTKDALDELGCFQLELRGDVEMKGKGKMRTYWLLGERKGPPGLL”, the “percentage of EdU-negative” value (MCF7; [6]) was 28 ± 1%, the “percentage of EdU-negative” value (MCF7; protein concentration 0.225 µM) was 28.8 ± 1.5% and the “percentage of EdU-negative” value (hTERT-HMEC; [6]) was 4.62 ± 0.46%. The “percentage of EdU-negative” value (hTERT-HMEC; protein concentration 0.225 µM) was 6.68 ± 1.3%.
For “MALPSRILLWKLVLLQSSAVLLHSGSSVPAAAGSSVVSESAVSWEAGARAVLRCQSPRMVWTQDRLHDRQRVLHWDLRGPGGGPARRLLDLYSAGEQRVYEARDRGRLELSASAFDDGNFSLLIRAVEETDAGLYTCNLHHHYCHLYESLAVRLEVTDGPPATPAYWDGEKEVLAVARGAPALLTCVNRGHVWTDRHVEEAQQVVHWDRQPPGVPHDRADRLLDLYASGERRAYGPLFLRDRVAVGADAFERGDFSLRIEPLEVADEGTYSCHLHHHYCGLHERRVFHLTVAEPHAEPPPRGSPGNGSSHSGAPGPDPTLARGHNVINVIVPESRAHFFQQLGYVLATLLLFILLLVTVLLAARRRRGGYEYSDQKSGKSKGKDVNLAEFAVAAGDQMLYRSEDIQLDYKNNILKERAELAHSPLPAKYIDLDKGFRKENCK [Q9BRK3]”, the “percentage of EdU-negative” value (MCF7; [7]) was 23.2 ± 2.3%, the “percentage of EdU-negative” value (MCF7; [8]) was 25 ± 0.57% and the “percentage of EdU-negative” value (hTERT-HMEC; [7]) was 4.84 ± 0.53%. The “percentage of EdU-negative” value (hTERT-HMEC; [8]) was 5.72 ± 0.27%.
In the case of “MALQRTHSLLLLLLLTLLGLGLVQPSYGQDGMYQRFLRQHVHPEETGGSDRYCNLMMQRRKMTLYHCKRFNTFIHEDIWNIRSICSTTNIQCKNGKMNCHEGVVKVTDCRDTGSSRAPNCRYRAIASTRRVVIACEGNPQVPVHFDG”, the “percentage of EdU-negative” value (MCF7; [9]) is reported as 25 ± 2.2%, the “percentage of EdU-negative” value (MCF7; [10]) is reported as 25.6 ± 4.4% and the “percentage of EdU-negative” value (hTERT-HMEC; [9]) is reported as 4.98 ± 0.26%. The “percentage of EdU-negative” value (hTERT-HMEC; [10]) was 4.74 ± 0.71%.
